Test [1] has as its target T1, SARS-CoV-2 nucleocapsid protein (N) (SARS-CoV-2, strain , UniProt P0DTC9).
T1 construct: also called SARS-CoV-2 NPs
In words: ELISA. (In an ELISA, binding on a coated surface is turned into a signal by an enzyme label.)

Test [2] addresses fraction 1 capsular antigen (F1) of Yersinia pestis (Yersinia pestis EV strain, UniProt P26948). In words: ELISA. As to conditions: both partners purified.
For test [3] the target is unchanged. In words: BLI. As to conditions: both partners purified.

This note sets out measurements from paper PMC11448073 (Microbiology Spectrum, 2024).

B1: human monoclonal antibody F3 (antibody, V domains shown)
VH: EVQLLESGGGVVQPGRSLRLSCAASGFTFSRYGMHWVRQAPGKGLEWVAVISHDGNIKYYGDSVKGRFTISRDNSKNTLYLQMNSLRVEDTAVYYCAKDRGKFDSWGQGTLVTVSS
VL: not shown
notes: also called F3-HRP; source: Expi293F, cotransfected heavy and light chain plasmids, purified (Protein A); copies: 2 + 2
Turning to B1, in test [1], the binding result is listed as “no binding”.

B2: human anti-F1 monoclonal antibody αF1Ig8 (antibody, V domains shown)
VH: QVQLQQWGAGLLKPSETLSLTCAVYGGSFSGYYWSWIRQPPGKGLEWIGEINHSGNTNYNPSLKSRVTISVDTSKNQFSLQLNSVTPEDTAVYYCARTRGYFDLWGRGTLVTVSS
VL: DIRMTQSPSSLSASVGDRVTITCRASQSISSYLNWYQQKPGKAPKLLIYATSSLQSGVPSRFSGSGSGTDFTLTISSLQFEDFATYYCQQSYSTPSSFGQGTKVDIK
notes: source: EXPi293F, synthesized expression plasmids
On to B2, for which the binding result in test [2] is “binds”.

B3: human monoclonal antibody F19 (antibody, V domains shown)
VH: EVQLLESGGGVVQPGGSLRLSCAASGFTFDDYAMHWVRQVPGKGLEWVSLISGDGGSTSYADSVKGRFTISRDNSKNSLYLQMSSLRTEDTALYYCAKDRGRAWIDYWGQGTLVTVSS
VL: not shown
notes: also called HRP-conjugated F19; source: Expi293F, cotransfected heavy and light chain plasmids, purified (Protein A); copies: 2 + 2
Consider B3, for which, in test [3], the affinity, expressed as Kd, was 0.165 nM. Moreover, the binding result in test [1] is “no binding”.

B4: human monoclonal antibody F23 (antibody, V domains shown)
VH: EVQLLESGGGVVQPGRSLRLSCAASGFTFSSYAMHWVRQAPGKGLEWVAAILYDGSNKNYADSVKGRFTISRDNSKNTLYLQMNSLRAEDTAVYYCARGTPAMVRGVIGPLFEHWGQGTLVTVSS
VL: DIQMTQSPDSLAVALGERATINCKSSQSVLYTSNNKNYLAWYQKKPGQPPKLLIYWASTRESGVPDRFSGSGSGTDFTLTISSLQPEDVAVYYCQQYFILPRTFGQGTKLEIK
notes: also called HRP-conjugated F23; source: Expi293F, cotransfected heavy and light chain plasmids, purified (Protein A); copies: 2 + 2
For the molecule B4, the binding result in test [1] is reported as “no binding”.
